Laboratory results taken from a protein production outcome set (Wang et al. 2014).

Assay: label from the status in PepcDB records

| Sequence | protein production |
| --- | --- |
| MTTQKLLSDCQFCSVVSKNNGEDPIGTANTSDNWLVLEAALPWTEEHLHSDRILSQIHDLFHELENRHIPVIPIAIAPDREYSVPGYVRALHYKRPTKSFAEFEKQEFLIPESQIGQFTSGFLEYPNDLDQFQTYQQPKNHIREIMVCTHGNVDVACSRFGYPIYQNLRQNYAAKSAGQLRVWRCSHIGGHQFAPTLFDLPTGQFWGHIEPEILDVLVWRNSPVKQLRQFYRGWSGMTKFEQIVEREIWMQHGWEWLQYQKSGQVLAKDTTNDEWNADWAEVRIDFTSPDNSIQGSYLARVEACSQVMTVFNSGKEQPLETVKQYRVSQLTQQLINI | failed |
| MARGELPRASISDTIPMTMASIDAGSVRFTARADKRHLNPLGGVHGGFAATVLDSVTGCAIHSILEAGVGYGTVDLSVKRVKAVPEDTPLVAEGRVLHVPCAIGSQRADLMLAPPRLGRDRRCPAGHAPAGAARAACAPQGRLTPMRRPLNAAPAARRCGRTGTDRSRAPGRACAAPWSSAC | failed |
| MTSSRVNSLIVGGFVLILLGGIIAAATILAGKTGSTDTYFTSYDNVTGIKYGTQVLYEGYRIGQVDEIIPEQRAEGTSFRLRLAVQKGWRIPEGSQTTIATSGLLSAVAINIRGGTAEASLTPGSEIPGGASGGMFAAINDLASEVGTLSRDGLEPLVAKLNAYVDTLGGSLADNLPAILGNARITSEAIARDLPPIIARVDRFTARLDAEVLSQKNIDGLGASIGNISAFSAELNGLGRELRQTGQTLDGMVAGSAPLVDSSLRDLRYTLRALASSIDAITFNMEGASRDMKEFSRSLRQNPGVLLRGSAPAEDGR | failed |
| MGKMEPFRATGDGLFIMNEGNFQYGNATLSYYDPETKKVENEIFYRANAMKLGDVAQSMIVRDTIGWVVVNNSHVIFAISTNTFKEVGRITGLTSPRYIHFISDEKAYITQIWDYRIFIVNPKTYQITGYIECPDMTMETGSTEQMVQYGKYVYVNCWSYQNRILKIDTTTDKVVDQLTVGIQPTSLVMDKNFKMWTITDGGYKGSPYGYEEPSLYRIDAETFKIEKQFKFQLGDAPSEVQLNGAGDELYWINKDIWRMSVDEERVPVRPFLKYRDTKYYGLTVSPKNGDVYVADAIDYQQQGMIYRYTEDGELVDEFYVGIIPGAFCWKLEHHHHHH | not failed |
| MKNFNDEEHNSQLTDEVLPEPEDARVIANILKAVGVESFDTRVVAQLVEFVYKYIGEVLELSKTFAQYAEREDIRQDDVKLAISSLLSKSFTQPPSRDVLLQLCRERNAVPLPVVDTYVGIQLPPKEFQLTTRNYQLKRKTTTESVASQELSEATGNISIGESSLQPNEEESNTMNT | failed |
| MTVIIAGERSGAGKTTITLAMLAYLARQKLRVQSFKVGPDYIDPMFHSQITGRPCRNLDPFLTSEAYVQRCFHYHSQGTPYSLIEGVMGLFDGVPYQGLTDYSSTAHIARLLNLPIVFVMDCQRLSGSVAAIVQGYRHWQPGVNLVGVILNRVGGDRHLELLKIALEPLRIPILGVFFRQQDLTLPDRHLGLVPCGELPQIQQYFDQLAHVAAQQLDWPKLLPLLETPRNLPSPMSLFDVPQKSPQARLAIAQDQAFNFYYADNLDLLTHCGFELIPFSPLEDTELPPAIDGVYLGGGFPELFAEQLSQNQALKDQLKTLIHQGLPTYGECGGLMYLSQSLTNFEGQIFPMLEMLPTAVTMGGKLSLGYRQAQVVNSHSWLWQTESLRGHEFHRSQMTKLPNQALYRQRGLLAIDQNTTDGWCVGSVQASYLHLHWGSQISTVEKFRAACLAFQKKLSYLGKHPPFKSVPLRNTGGDAHGRE | failed |
| KTGQLLPKSPAARYEAIQWLMFQMGGVGPMFGQLGFFHKFAGKDYEDKRPRDRYVAESRRLLQVLEGRMAGRAWIMGDEYTIADIAIWPWVRNLVGFYGAGELVGFDDFPNIQRVVQAFAERPAVARGLAIPARD | failed |
| MPTVAPTTVKPTTIPKETTTIAFTTDSSIEKPFGLDVSQASVGYVNIVWGRGTIDCYNVYVDGERRRTGISAQSLKLPVYTEGTHTIAITTVVGTRESEKLEVQVAITGTGEKETEPETCPEELKPQLKKNVPLRDDRIAIELNNKTNGKYSDSEIYWCILGNNENNQLCYMDKDGNMIPASESLNTVEVNGTKYANIYHTLAESDHVYAPTIRSGRMYLSYGKPVYVKFNGSTGYAGPDLNNPGDVNANTLFEFAEFTIEGKNYWGNTTRVDYFCFPMVTRLIGGSLYGGYDNVVGDIGTRDEIFTAFKNEVPNEYKSLVRDDRIIAPCKSTFNVGQDNGNYFDNYINEFWNKYANEDLRFSSESGSFVGRVVGNQMRFTREGDSTVYYVDKPNTQEVLEGKGAFDRGNGVEKAIEAQLCAAFNRGVATEPDKWYTPSQYYKNSVANFYAGFFHEHSVLGKAYGFCYDDVNDQSTLLQYNKADALVIDLKW | failed |
| MYTCKNKERMLMYKTIIMPVDVFEMELSDKAIRHAEFLAQDDGVIHLLHVLPGSASLSLHRFAADVRRFEEHLQHEAEERLQTMVSHFTIDPSRIKQHVRFGSVRDEVNELAKELDADVVVIGSRNPSISTHLLGSNASSVIRHANLPVLVVR | failed |
| MRVKICGITRLEDALLAEALGAFALGFVLAPGSRRRIAPEAARAIGEALGPFVVRVGVFRDQPPEEVLRLMEEARLQVAQLHGEEPPEWAEAVGRFYPVIKAFPLEGPARPEWADYPAQALLLDGKRPGSGEAYPRAWAKPLLATGRRVILAGGIAPENLEEVLALRPYALDLASGVEEAPGVKSAEKLRALFARLASLRMEG | not failed |
| MHGTRRTRKDSPCMPAIHRAPLLRRREFRHEDRNGSLAPALDLIAWSRSAFGWLAHQPYLLLSLTSLFWAGNIVLGRAVAGHVPPVTLSCARWVGAMLLLLPFAWPHLRHDWRKLRAQWKLMIVLSATGFAINNALSYWGLQYTQALNALLMQSSGPLFVALWSLLLFGVRLTWMQATGIALSLLGVLTIILRGDFAALAGIELNRGDLMVAGALCAFGLYSALMPKRPATHPLSLIVVTTGCGALLLLPFSAWEYASGVRPSADWISVATLAYVVIFPSMLAYLCFNRGVALIGPNRSAPFLHLMPVFGSVMAIVLLGEKPELFHLAGYAMVVAGVFIAARR | failed |
| QLRDFSSIIQTCSGNIQRISQATAQIKNLMSQLGTKQDSSKLQENLQQLQHSTNQLAKETNELLKELGSLPLPLSTSEQRQQRLQKERLMNDFSAALNNFQAVQRRVSEKEKESIAR | not failed |
| MLEGEFLSVAELKDLTLSLASKFLNNLLASKLLVSKQLFIDRKKELGLLEERLKSGKAQFIVIYGRRRVGKTALILEFLRRHGGLYLLARETSEIENLERFSLRLAEYFNDSFLKKNPLRSLDAFFEYLSTKAEKPFIIAIDEFPYLVKGNKALPSILQEYWEMKLSKKKIFLIVSGSSVSMTERLLGYKSPLYGRRTAQLKLKPLDFFNAREFLPKYSLEDFVRVYGILGGTPAYLLEFSDEKSLEENLKSYFRVDSLLYGDALFILREELDEPRNYFAIMEAIARGNTTLGEIVNETGLERATVGKYLSVLIDLDLVRREVPITASRKSRKGRYYIADNYFAFWFRYVYPNADLIESGNGELLVDTVMDDIDHYTGEVFEGVAKEFLLRLNKSERLPFRFSRVGRWWYKNEEIDLVALNEREKKVLFIEVKWKDLSKREARGILKDLKRKAKLVGLDEWGKHYGLVAKSVRGKDEIKEEGWLAWDLEDIHRMAFLEHHHHHH | failed |
| MKMLNRLDLGVPCLRAGFAGEQAFFLAMDGRLHVQQGDQRRVVALHDGDVLSACAAPGQADAAAWLLSAGEDGRVMRAGAGEPDCVASVPNKWVTALAVAADGALAYASGRTVWLAGGGGEAAALPQERPVQALRFSHGGRWLAVAGYDGLALYDRQAGGEPQRLDWKGMPTRVAFSPDDRFVLVATRDAVLHGWRLDTLRHFRMVGYPRAVGSWSWLAGGQWLATDGSAGAVLWPFEGEEGPIGSTPLALGERPDGEVSAVACHPARPWVAVGYADGLMVLESTDGALRRILGQAGRDRVACLAWDRAGARLAYGTPSGACGVIQADTGEEG | failed |
| MKKLIVDLDGTLTQANTSDYRNVLPRLDVIEQLREYHQLGFEIVISTARNMRTYEGNVGKINIHTLPIITEWLDKHQVPYDEILVGKPWCGHDGFYIDDRAVRPSEFASMNLEEIHQLFEKEKSCS | not failed |
| GNNVSDADIRAIKHSERRLRNHFLPQSLFSHCGFEQAFNYKYLRIMRIAVHPQIQQQGIGAQFIHYIELLAKEQGVDFIGASFGVNPELLSFWLNAGFSTARIGFTKDKASGEHSALLIKGL | failed |
| MPRSTAASAPLTVRPFSLVPLMAAYMACTMSMMAFVSLIGPISRALHLETWHAGAAVTVSGVIWMLLARPWGQASDRFGRRRVLLLGTAGFTLAYWALCLFIDLSLQSLPSVAMAFLGLMLGRGLIGAFYAAIPVGGFALIADNVEPQHRARAMATLGAANAVGLVLGPAVAALLARYSLSLPFYAMAVLPLLAFLVLRYQLPRQELHLAQAPTRVRLGDPRLRRPMVVAFVAMLCVSVAQITVSFYALDRLHMSPADAAQTAGVALAMVGVALICAQLVVRKLEWPPLRMIRYGALLSALGYAGSMLVDSAWGLWLAFFVSAAGMGGVFPSFSALAANAVEASEQGATAGSIGAAQGLGVVIGPMAGSLIYAIEPRLPYLLAAVLLVLIAIWPAPQPKDL | failed |
| MSTSQGSPNWPRAERVARLEVLETQILARPAEVYAEVLALWPGLSAAVPSPASPAPDSCPGPSELAAQATALQLLSRCAVLLGEDGAAANHAETGRRLAHDLGLRSLEARCLEVLGVVRGRQGDVKQAAWLLRRSLYLLHALGDTPGQGRLLGRVGDLLERLEEYPQALLFYRAGLAQLPAARPVTAAVQVGLARTLHQLGEYAESQELAAQALAVCQEVGLPQLEAQVQLQQALTQLALGELDASRRHAEQAQALAAPRHAEQAQALAAPLEHTVPGAAAWVLGEAALVRGDLAQAREGLGRAEELANTPPLLARVRGSQSRLYEQLGDPAQALRCLREQRELEQQHRARLAEQRAGLLAEQIRYEVLRREAELQRKRRNERAQAASALRETRVELSRQASHDQLTGLANRSFFYTRARQALDLLAPGRSLGLIVADIDHLKAINDRFGYAVGDLLITELARRLCEAVRPGDLVGRLSGDEFVMLLSDLASPGDLRLVAERLLQQLREPCVCGTELVVPTVSLGYVVAPQDGGDVELLQKRADLALFQAKAQGRNMAVAFAGDMSAEEEERRMLSQDLRHAVRHGQLQLHYQGIFLLPGQRLSGFEALVRWPHPKRGMIPPDRFIALAEESRLILELGRWVLDEACRQARAWQLPERGLTMAVNVSALQFEQSDFVAGVRACLEQHGLPGHSLVLELTESMVHRDPRLAKQTLRELQALGVKVAMDDFGTGYSSLSMLKSLPFGLLKIDREFLQDLSAASEQFAASQQFIEVMVRLAHNLQMRVVAEGVETAEQYDLLCGMGCDEAQGYWLARPLPPAEAAALLPAGAPDSPWPTQSPSSQQARQESPRQSLSED | failed |
| MPFKEYDHDFIDKNKKASSSVRLALLLSVLIIIFNLLFFKHRDFQEQLHNNPGSYTDLIALVFLFFILSCTSKISLNHTSALSIRLGLHVWICSATFDFMDEFIYQPKLVGYYVEDMLRIIGMFGVGFGVYTLIQQINNKYVEARIQSFSDELTQLPNRRFFINELKKLEAKTPYLFIIDIDNFKVINDKYGHTKGDEILSKFGHILSRFDNSEVVATRIGGEEFAIILYAGTQDRAEKLAREVLKNANKIIIKNMHHLSVSIGAGKKQPQEPTEHFMKRVDVALYQAKNTGKGKVEWALEPKEKTQ | failed |
| IEDCWLAYATAGTLNEDKSNAILIPTWYSGTHQTWFQQYIGTDHALDPSKYFIISINQIGNGLSVSPANTADDSISMSKFPNVRIGDDVVAQDRLLRQEFGITELFAVVGGSMGAQQTYEWIVRFPDQVHRAAPIAGTAKNTPHDFIFTQTLNETVEADPGFNGGEYSSHEEVADGLRRQSHLWAAMGFSTEFWKQEAWRRLGLESKESVLADFLDPLFMSMDPNTLLNNAWKWQHGDVSRHTGGDLAAALGRVKAKTFVMPISEDMFFPVRDCAAEQALIPGSELRVIEDIAGHLGLFNVSENYIPQIDKNLKE | failed |
